# Measured values published in the RNAGym collection of RNA variant scans (doi:10.7554/elife.90254).
# B1: LINE1-full (parent)
# chain: UACGUAGGUGGUUUUCCCCUGAUAGUGCUAAGGGGGCCUGGAAGUUUGGACUGGGCAGAGCUCAACACAGCGUGGCAAAGUGGCUGUGGCUAGACUGCCUCUCUGGAUUCCUCGUCACUCAGCAGGGCAUCUCUGAGAGAAAUGCC
# Variants of: B1
# Assay: self-cleavage, relative activity (ratio to wild type); higher = more cleavage; in vitro, sequencing; the parent is a self-cleaving ribozyme
row,Variant,self-cleavage
1,C3U U104C,1.53
2,C3U U112A,1.38
3,C3U U119A,0.83
4,C3U U119G,0.98
5,C3U U130C,0.31
6,C3U U132C,1.1
7,C3U U143C,0.62
8,G4A,0.89
9,G4A A24U,1.8
10,G4A A30G,0.59
11,G4A A31G,0.6
12,G4A A42U,0.78
13,G4A A43U,1.21
14,G4A A59G,0.12
15,G4A A64U,0.72
16,G4A A67G,0.62
17,G4A A92G,0
18,G4A A94G,0.21
19,G4A A107G,1.6
20,G4A A121G,1.78
21,G4A A136U,1.51
22,G4A C17A,0.92
23,G4A C19U,0.59
24,G4A C116A,1.22

row,Variant,self-cleavage
1,G4A C145U,1.11
2,G4A G10A,1.21
3,G4A G34A,0.66
4,G4A G70U,0.11
5,G4A G75A,0.87
6,G4A G93A,0.03
7,G4A G125A,0.86
8,G4A G127A,1.67
9,G4A U9C,0.69
10,G4A U12C,0.77
11,G4A U13C,1.12
12,G4A U15C,1.11
13,G4A U20C,1.2
14,G4A U26C,0.61
15,G4A U39A,0.54
16,G4A U39C,1.31
17,G4A U45C,0.57
18,G4A U46A,1.17
19,G4A U62C,0
20,G4A U81C,1.44
21,G4A U85A,0.04
22,G4A U87A,0.12
23,G4A U96A,0.08
24,G4A U100C,1.21

row,Variant,self-cleavage
1,G4A U102C,0.82
2,G4A U102G,0.26
3,G4A U108G,0.96
4,G4A U112C,1.31
5,G4A U130A,0.55
6,G4C,1.17
7,G4C A22G,0.99
8,G4C A65G,0.08
9,G4C A107G,0.29
10,G4C A140G,1.19
11,G4C G135A,0.56
12,G4C U12G,0.93
13,G4C U15C,1.18
14,G4C U85C,0.13
15,G4C U87C,0.74
16,G4C U91A,0.75
17,G4C U100C,1.81
18,G4C U112C,1.42
19,G4C U115A,1.51
20,G4C U130A,1.1
21,G4C U132C,0.97
22,G4U,1.25
23,G4U A69G,0.32
24,G4U A129G,1.07

row,Variant,self-cleavage
1,G4U A142G,1.46
2,G4U C61U,0.08
3,G4U C110A,1.56
4,G4U G80C,1.07
5,G4U U13C,0.93
6,G4U U20C,1.33
7,G4U U45A,1.04
8,G4U U73C,2.45
9,G4U U96A,0.09
10,G4U U100C,1.73
11,G4U U130A,1.16
12,U5A A22G,0.73
13,U5A A31G,0.82
14,U5A A31U,1.1
15,U5A A42G,1.15
16,U5A A50G,0.78
17,U5A A59G,0.11
18,U5A A59U,0.52
19,U5A A65G,0.08
20,U5A A65U,0.26
21,U5A A67U,0.14
22,U5A A78U,1.89
23,U5A A79G,0.87
24,U5A A79U,0.77

row,Variant,self-cleavage
1,U5A A121G,0.84
2,U5A A124G,1.75
3,U5A A124U,1.2
4,U5A A129U,1.47
5,U5A A138G,0.75
6,U5A A140G,0.88
7,U5A A141G,1.23
8,U5A C61A,0.03
9,U5A C90G,0.09
10,U5A C98U,0.53
11,U5A C110U,0.34
12,U5A G32A,0.93
13,U5A G34U,0.88
14,U5A G36C,1.16
15,U5A G40A,1.01
16,U5A G44A,0.81
17,U5A G125U,0.15
18,U5A U9A,0
19,U5A U13C,0.99
20,U5A U14A,1.15
21,U5A U14C,0.85
22,U5A U15C,0.94
23,U5A U20A,1.12
24,U5A U26A,1.37

row,Variant,self-cleavage
1,U5A U39A,0.8
2,U5A U46A,0.82
3,U5A U46C,1.03
4,U5A U47A,0.59
5,U5A U52A,0.52
6,U5A U62C,0.05
7,U5A U85C,0.2
8,U5A U85G,0.16
9,U5A U87A,0.15
10,U5A U96C,0.45
11,U5A U100A,0.51
12,U5A U100C,0.82
13,U5A U112C,0.71
14,U5A U115C,0.5
15,U5A U130C,0.96
16,U5A U132C,1.25
17,U5C A6G,0.65
18,U5C A6U,1.09
19,U5C A43G,1.03
20,U5C A43U,1.48
21,U5C A50U,0.64
22,U5C A57G,0.93
23,U5C A57U,0.29
24,U5C A64U,0.49

row,Variant,self-cleavage
1,U5C A65G,0.15
2,U5C A65U,0.26
3,U5C A67G,0.67
4,U5C A69G,0.78
5,U5C A78G,1.18
6,U5C A92G,0
7,U5C A94C,0
8,U5C A94U,0.76
9,U5C A117G,0.81
10,U5C A117U,1.03
11,U5C A129C,1.69
12,U5C A129U,1.05
13,U5C A136G,1.62
14,U5C A138G,1.18
15,U5C A138U,1.58
16,U5C A140U,0.86
17,U5C A141G,0.92
18,U5C A142G,1.15
19,U5C C18A,0.67
20,U5C C37U,1.02
21,U5C C38A,1.79
22,U5C C66U,0.13
23,U5C C76U,1.88
